Data from article PMC9753469 (2022).

B1: MBP-KRAB (ZNF93 KRAB, wild type) (domain or fragment)
chain: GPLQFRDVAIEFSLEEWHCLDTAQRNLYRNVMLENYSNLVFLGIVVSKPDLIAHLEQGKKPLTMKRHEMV
B2: MBP-KRAB (ZNF93 KRAB E35R) (domain or fragment)
chain: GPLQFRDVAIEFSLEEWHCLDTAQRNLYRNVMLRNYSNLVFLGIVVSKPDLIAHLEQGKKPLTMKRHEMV
B3: KAP1 RBCC (wild type), SPR analyte (domain or fragment)
chain: SPAGGGAEALELLEHCGVCRERLRPEREPRLLPCLHSACSACLGPAAPAAANSSGDGGAAGDGTVVDCPVCKQQCFSKDIVENYFMRDSGSKAATDAQDANQCCTSCEDNAPATSYCVECSEPLCETCVEAHQRVKYTKDHTVRSTGPAKSRDGERTVYCNVHKHEPLVLFCESCDTLTCRDCQLNAHKDHQYQFLEDAVRNQRKLLASLVKRLGDKHATLQKSTKEVRSSIRQVSDVQKRVQVDVKMAILQIMKELNKRGRVLVNDAQKVTEGQQERLERQHWTMTKIQKHQEHILRFASWALESDNNTALLLSKKLIYFQLHRALKMIVDPVEPHGEMKFQWDLNAWTKSAEAFGKIVAERP

How the values were obtained:
[1] = molecular target: T1, KAP1 RBCC R311E, SPR analyte (human (by the printed UniProt entry), UniProt Q13263 1-835, R311E); experiment: SPR; major phase
[2] = molecular target: T1, KAP1 RBCC R311E, SPR analyte; experiment: SPR; major phase; remark: listed apart in the source
[3] = molecular target: T1, KAP1 RBCC R311E, SPR analyte; experiment: SPR
[4] = molecular target: T1, KAP1 RBCC R311E, SPR analyte; experiment: SPR; minor phase
[5] = molecular target: B2; experiment: SPR; major phase
[6] = molecular target: B1; experiment: SPR; major phase
[7] = molecular target: B1; experiment: SPR; minor phase
[8] = molecular target: B2; experiment: SPR; minor phase
[9] = molecular target: B1; experiment: SPR; minor phase; remark: listed apart in the source

Binder	koff [1] [s⁻¹]	Kd [2] [µM]	Kd [3] [µM]	Kd [4] [µM]	koff [5] [s⁻¹]	koff [6] [s⁻¹]	koff [7] [s⁻¹]	Kd [8] [µM]	Kd [9] [µM]
B1	0.00083	0.029	0.029	2					
B2	0.0037			35.6					
B3					0.008	0.000232	0.0061	47	19
